Reference: patent CN117043185A (NUMAB INNOVATION AG, dated 2023)
Each block holds one binder with its values, some of them ahead of it.

Target: T1, human ROR1 expressed on cells (MDA-MB-231, JIMT-1, CLL patient cells) (human, UniProt Q01973 30-937)
T1 construct: whole, on cells; also called hROR1; plasma-membrane human ROR1
Test: flow cytometry on MDA-MB-231 cells

T1 sequence (Q01973 30-937): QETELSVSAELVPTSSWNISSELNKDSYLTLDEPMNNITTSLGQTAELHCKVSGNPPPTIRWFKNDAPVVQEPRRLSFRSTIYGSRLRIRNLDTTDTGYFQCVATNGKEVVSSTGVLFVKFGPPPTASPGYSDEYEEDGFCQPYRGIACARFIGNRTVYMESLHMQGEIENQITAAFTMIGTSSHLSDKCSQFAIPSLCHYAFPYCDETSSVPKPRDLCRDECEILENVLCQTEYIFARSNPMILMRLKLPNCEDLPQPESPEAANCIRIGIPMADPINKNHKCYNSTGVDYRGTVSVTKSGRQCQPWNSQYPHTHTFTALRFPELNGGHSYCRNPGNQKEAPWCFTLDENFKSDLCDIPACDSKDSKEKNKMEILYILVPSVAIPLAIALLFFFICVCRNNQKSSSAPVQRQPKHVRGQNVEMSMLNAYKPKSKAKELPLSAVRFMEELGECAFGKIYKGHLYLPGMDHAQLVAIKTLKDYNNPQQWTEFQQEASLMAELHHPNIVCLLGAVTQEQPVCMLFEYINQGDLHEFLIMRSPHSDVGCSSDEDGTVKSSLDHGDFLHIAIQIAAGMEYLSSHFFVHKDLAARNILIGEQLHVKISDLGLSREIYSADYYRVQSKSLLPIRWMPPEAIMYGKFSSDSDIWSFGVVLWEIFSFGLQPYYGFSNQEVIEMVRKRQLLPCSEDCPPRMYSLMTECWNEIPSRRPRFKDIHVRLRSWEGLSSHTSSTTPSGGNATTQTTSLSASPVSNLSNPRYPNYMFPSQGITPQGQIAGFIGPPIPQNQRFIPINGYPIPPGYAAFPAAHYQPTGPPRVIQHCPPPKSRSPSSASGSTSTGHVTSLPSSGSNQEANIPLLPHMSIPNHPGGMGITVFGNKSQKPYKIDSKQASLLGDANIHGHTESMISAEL

fold higher apparent binding affinity than reference Fab PRO2213: ~3 fold
B1: PRO2062 (scFv, V domains shown)
VH: QSQLVESGGGLVQPGGSLRLSCAVSGLSLSRNAMSWVRQAPGKGLEWIGIILTSGSTYYASWAKGRFTISKDNSKNTVYLQMNSLRAEDTAVYFCVRGIASSSLKSFWGQGTLVTVSS
VL: AQQLTQSPSSLSASVGDRVTITCQASQNVWNNNYLSWFQQKPGKPPKLLIVTASTLASGVSSRFSGSGSGTDFTLTISSLQPEDFATYYCAGGFSGEIRAFGTGTKVTVLG

fold lower apparent binding affinity than original scFv PRO2062: ~2 fold
B2: PRO2271 (scFv, V domains shown)
VH: QSQLVESGGGLVQPGGSLRLSCAVSGIDLSRNAMSWVRQAPGKGLEWIGIILTSGSTYYASWAKGRFTISKTSTTLDLQMNSLRAEDTAVYFCVRGIASSSLKSFWGQGTLVTVSS
VL: B1 VL

fold lower apparent binding affinity than reference Fab PRO2213: ~3 fold
B3: PRO2060 (scFv, V domains shown)
VH: QSQVVESGGGLVQPGGSLRLSCAVSGFDLSSYAVSWVRQAPGKGLEWIGIIYPRANTYYASWAKGRFTISKDNSKNTVYLQMNSLRAEDTAVYFCARDRYDSGAYLYTTYFNLWGQGTLVTVSS
VL: DVQMTQSPSSLSASVGDRVTITCRASENIYSGLAWYQQKPGKPPKLLIYRASTLASGVSSRFSGSGSGTDFTLTISSLQPEDFATYYCQGGYYSSSSTYIAFGTGTKVTVLG
